# Measurements published in US20240290419A1 (KATHOLIEKE UNIVERSITEIT LEUVEN, published 2024).
# B1: S6BE (other)
# chain: MNGLIYAVGGYDGNTHLNSVEAYDPERNEWSLVAPLSTRRSGVGVAVLNGLIYAVGGYDGNTHLNSVEAYDPERNEWSLVAPLSTRRSGVGVAVLNGLIYAVGGYDGNTHLNSVEAYDPERNEWSLVAPLSTRRSGVGVAVLNGLIYAVGGYDGNTHLNSVEAYDPERNEWSLVAPLSTRRSGVGVAVLNGLIYAVGGYDGNTHLNSVEAYDPERNEWSLVAPLSTRRSGVGVAVLNGLIYAVGGYDGNTHLNSVEAYDPERNEWSLVAPLSTRRSGVGVAVL
# notes: Designed six-blade B-type SAKe propeller; Expressed with an N-terminal His tag that was removed with thrombin; also called SAKe6BE; S6_6E
# B2: S2BE-3HR (other)
# chain: NGLIYAVGGYDGNTHLNSVEAYDPERNEWSLVAPLSTRRSGVGVAVLNGLIYAVGGYDGNTHLNSVEAYDPHRNEWSLVAPLSTRRSGVGVAVL
# notes: Designed two-blade truncation of S6BE-3HR; Expressed from pET-28a with an N-terminal hexahistidine tag that was removed with thrombin
# B3: S6BE-3HR-L3 (other)
# chain: NGLIYAVGGYDGSPDGSTHLNSVEAYDPERNEWSLVAPLSTRRSGVGVAVLNGLIYAVGGFATLETESGELVPTELNSVEAYDPHRNEWSLVAPLSTRRSGVGVAVLNGLIYAVGGYDGSPDGSTHLNSVEAYDPERNEWSLVAPLSTRRSGVGVAVLNGLIYAVGGFATLETESGELVPTELNSVEAYDPHRNEWSLVAPLSTRRSGVGVAVLNGLIYAVGGYDGSPDGSTHLNSVEAYDPERNEWSLVAPLSTRRSGVGVAVLNGLIYAVGGFATLETESGELVPTELNSVEAYDPHRNEWSLVAPLSTRRSGVGVAVL
# notes: L3 loop graft on the S6BE-3HR scaffold
# B4: dS6AC (other)
# chain: NGRIYAVGGYDGSPDGHTHLNSVEAYDPETDEWSFVAPMTTPRSGVGVAVLNGRIYAVGGYDGSPDGHTHLNSVEAYDPETDEWSFVAPMTTPRSGVGVAVLNGRIYAVGGYDGSPDGHTHLNSVEAYDPETDEWSFVAPMTTPRSGVGVAVLNGRIYAVGGYDGSPDGHTHLNSVEAYDPETDEWSFVAPMTTPRSGVGVAVLNGRIYAVGGYDGSPDGHTHLNSVEAYDPETDEWSFVAPMTTPRSGVGVAVLNGRIYAVGGYDGSPDGHTHLNSVEAYDPETDEWSFVAPMTTPRSGVGVAVLSGGRIYAVGGYDGSPDGHTHLNSVEAYDPETDEWSFVAPMTTPRSGVGVAVLNGRIYAVGGYDGSPDGHTHLNSVEAYDPETDEWSFVAPMTTPRSGVGVAVLNGRIYAVGGYDGSPDGHTHLNSVEAYDPETDEWSFVAPMTTPRSGVGVAVLNGRIYAVGGYDGSPDGHTHLNSVEAYDPETDEWSFVAPMTTPRSGVGVAVLNGRIYAVGGYDGSPDGHTHLNSVEAYDPETDEWSFVAPMTTPRSGVGVAVLNGRIYAVGGYDGSPDGHTHLNSVEAYDPETDEWSFVAPMTTPRSGVGVAVL
# notes: Genetic fusion of two S6AC units via a Ser linker
# Experiments:
# [1] = target: the molecule itself; assay: dialysis to pH 4.0 and X-ray diffraction; self-assembly into crystals
# Excerpt: SAKe's symmetry and modifiable interfaces make it an ideal building block for construction of macromolecular assemblies. […] To understand this reversible self-assembly mechanism, the crystals formed at different pH were investigated with XRD. […] At pH 8.0, His (pKa3 6.08-6.90) and Glu (pKa 4.3-4.4) are deprotonated and the net […] charge of S6BE likely causes mutual repulsion. However, at pH 4 these residues are protonated. Due to its symmetry and dipole-like character, S6BE shape and charge complementarity is then expected to allow for self-assembly into a tight hexagonal packing (FIGS. 2 and 11). A series of hydrogen bonds and hydrophobic interactions can then further stabilize the assembly. Similar mechanisms have been reported for the capsid proteins of cowpea chlorotic mosaic virus (CCMV) [Speir et al. Structure 1995, 3, 63-78; Lavelle et al. J. Phys. Chem. B 2009, 113, 3813-3819; Van Eldijk et al. J. Am. Chem. Soc. 2012, 134, 18506-18509].
# [2] = target: the molecule itself; assay: SDS PAGE, SEC, XRD; self-association
# [3] = target: the molecule itself; assay: size exclusion chromatography, after EDTA
# Excerpt: (§1) FIG. 29: Size Exclusion Chromatograms for various SAKe mutants. A: S6BE-3 HR on a HiLoad Superdex 75 pg 16/600 column. B: S6BE-3CHR on a HiLoad Superdex 200 pg 16/600 column. C: S2BE-3 HR on a HiLoad Superdex 75 pg 16/600 column. D: S6BE-3 HR-L3 on a HiLoad Superdex 200 pg 16/600 column. E: mEm-v22S6BE-3 HR on a HiLoad Superdex 200 pg 16/600 column. F: dS6AC on a HiLoad Superdex 200 pg 16/600 column.
# (§2) Concentrated protein samples were loaded on HiLoad Superdex 75 pg 16/600 or HiLoad Superdex 200 pg 16/600 SEC columns (Cytiva). SEC can also be used to assess biological size. All samples were run with a HEPES buffer (20 mM HEPES, pH 8.0, 200 mM NaCl). Proteins expected to interact with metals were incubated with at least 5 mM EDTA prior to SEC injection.
# [4] = target: the molecule itself; assay: size exclusion chromatography
# Excerpt: as §1, §2
protein,measurement,setting,value
B1,binding result,[1],binds
B2,binding result,[2],binds
B3,binding result,[3],no binding
B4,binding result,[4],no binding
